Measured values as given in US20140093477A1.

Legend:
[1] = target: fibronectin from human plasma (full-length soluble fibronectin) (human) (UniProt P02751); experiment: fluorescence saturation binding, fluorophore-labeled MBP-MAM on immobilized fibronectin (coated plates)
[2] = target: fibronectin on host cells (UniProt P02751); experiment: cell-based or functional assay

## MBP-MAM6 (6xHis-MBP-Cys-six mce domains), Alexa Fluor 488-labeled
[1]
  Kd: 36 µM

## MBP-MAM7 (6xHis-MBP-Cys-MAM7, seven mce domains), Alexa Fluor 488-labeled (from UniProt P0AEX9 27-392)
[2]
  delay of attachment of labeled MAM7 protein to trypsin-treated host cells: 1 h
